For three molecules, Kd, t1/2 diss and T1/2 dis results are on record in patent US20200277406A1 (ROCHE DIAGNOSTICS OPERATIONS, published 2020).

Where “and” joins values, the source holds several entries; their conditions need not be identical. Identical values can stand only once.

The target of test [1] is T1, pIGF-1R(1340-1366)[1346-pTyr]amid (phosphotyrosine at 1346 (1346-pTyr); C-terminal amide).
T1 construct: also called pIGF-1R peptide; phosphorylated IGF-1R peptide (free in solution)
T1 peptide: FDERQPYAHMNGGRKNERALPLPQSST
Put plainly: SPR (Biacore 3000, 25 C), dual binder on biotinylated linker on SA chip, peptide in solution; T40-Bi linker (spacer T20-Biotin-dT-T20). How it is done: (§1) A BIACORE™ 3000 instrument (GE Healthcare) was used with a BIACORE™ SA sensor mounted into the system at T=25° C. The system was preconditioned at 100 μl/min with 3 ×1 min injection of 1 M NaCl in 50 mM NaOH and 1 min 10 mM HCl.
(§2) 124 RU amino-PEO-biotin were captured on the reference flow cell 1.
(§3) As a control, buffer was injected instead of the ssFabs.
A general note: SPR reads the build-up and loss of mass on a sensor chip optically.

Test [2] addresses T1, pIGF-1R(1340-1366)[1346-pTyr]amid. In words: SPR (Biacore 3000, SA sensor, 25 °C): ssFab′ hybridised on the captured biotinylated T40-Bi linker (linker 10), peptide injected in solution. Here is the method:
as §2, §3
(§4) The dissociation was monitored at 50 μl/min for 5.3 min. The system was regenerated after each concentration step with a 12 sec pulse of 250 mM NaOH and was reloaded with ssFab′ ligand.

In test [3] the target is T2, IGF-1R(1340-1366)amid (C-terminal amide).
T2 construct: also called IGF-1R peptide; non-phosphorylated IGF-1R peptide (free in solution)
T2 peptide: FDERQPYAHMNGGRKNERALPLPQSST
The test is described as above. How it is done: as §2, §3, §4

Test [4] concerns the target T3, IGF-1R(1340-1366); Glu(Bi-PEG-1340]amid (not fully specified; biotin-PEG linker bound via glutamic acid corresponding to position 1340; C-terminal amide).
T3 construct: also called IGF-1R peptide; non-phosphorylated IGF-1R peptide (biotinylated)
T3 peptide: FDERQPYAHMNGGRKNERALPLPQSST
In words: SPR (Biacore 2000, 25 C), immobilised biotinylated peptide, 100 nM ssFab′ in solution.
Protocol: (§5) Subsequently biotinylated peptides were captured on the SA surface in the respective flow cells. […] Finally all flow cells were saturated with d-biotin.
(§6) Report points were set at the end of the analyte association phase (Binding Late, BL) and at the end of the analyte dissociation phase (Stability Late, SL) to monitor the response unit signal heights of each interaction. The dissociation rates kd (1/s) were calculated according to a linear 1:1 Langmuir fit using the BIACORE™ evaluation software 4.1. The complex halftimes in minutes were calculated upon the formula ln(2)/(60*kd).

Test [5] addresses T4, IGF-1R(1340-1366)[1346-pTyr; Glu(Bi-PEG-1340]amid (not fully specified; phosphotyrosine at 1346 (1346-pTyr); biotin-PEG linker bound via glutamic acid corresponding to position 1340; C-terminal amide).
T4 construct: also called pIGF-1R peptide; phosphorylated IGF-1R peptide (biotinylated)
T4 peptide: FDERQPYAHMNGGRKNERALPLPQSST
The test is described as above.
Protocol: as §5, §6

For test [6], the target named is T1, pIGF-1R(1340-1366)[1346-pTyr]amid. Put plainly: SPR (Biacore 3000, SA sensor, 25 °C): ssFab′ hybridised on the captured biotinylated T0-Bi 37-mer linker, peptide injected in solution. How it is done:
as §2, §3, §4

Test [7] addresses T2, IGF-1R(1340-1366)amid. Described as above. How it is done: as §2, §3, §4
Test [8] concerns the target T1, pIGF-1R(1340-1366)[1346-pTyr]amid. In words: SPR (Biacore 3000, 25 C), dual binder on biotinylated linker on SA chip, peptide in solution; T0 linker (no thymidine spacer). How it is done: as §1, §2, §3

B1: T40 dual binding agent (ssFab′ 8.1.2 and ssFab′ 1.4.168 on the T40-Bi linker, linker 10) (bispecific antibody, V domains shown)
VH 1: EVQLQQSGPALVKPGASVKMSCKASGFTFTSYVIHWVKQKPGQGLEWIGYLNPYNDNTKYNEKFKGKATLTSDRSSSTVYMEFSSLTSEDSAVYFCARRGIYAYDHYFDYWGQGTSLTVSS
VL 1: QIVLTQSPAIMSASPGEKVTLTCSASSSVNYMYWYQQKPGSSPRLLIYDTSNLASGVPVRFSGSGSVTSYSLTISRMEAEDAATYYCQQWSTYPLTFGAGTKLELK
VH 2: QCDVKLVESGGGLVKPGGSLKLSCAASGFTFSDYPMSWVRQTPEKRLEWVATITTGGTYTYYPDSIKGRFTISRDNAKNTLYLQMGSLQSEDAAMYYCTRVKTDLWWGLAYWGQGTLVTVSA
VL 2: QLVLTQSSSASFSLGASAKLTCTLSSQHSTYTIEWYQQQPLKPPKYVMELKKDGSHTTGDGIPDRFSGSSSGADRYLSISNIQPEDESIYICGVGDTIKEQFVYVFGGGTKVTVLG
modifications: Fab′ hinge cysteine coupled to ssDNA
Turning to B1, the Kd (as a rule, the equilibrium constant for the complex coming apart) was 0.01 nM in test [1]; 0.0125 nM in test [2]; 0.973 nM and 1 nM in the test with IGF-1R(1340-1366)amid [3]. Further, the t1/2 diss with IGF-1R(1340-1366)amid [3] was found to be 4.3 min.

B2: ssFab′ 1.4.168 (Fab, V domains shown)
VH: DVKLVESGGGLVKPGGSLKLSCAASGFTFSDYPMSWVRQTPEKRLEWVATITTGGTYTYYPDSIKGRFTISRDNAKNTLYLQMGSLQSEDAAMYYCTRVKTDLWWGLAYWGQGTLVTVSA
VL: B1 VL 2
modifications: hinge-region cysteine of the Fab′ coupled via maleimide to a fluorescein-labelled ssDNA oligonucleotide
notes: Fab′ of murine mAb 1.4.168 (pepsin cleavage, cysteamine reduction), 1:1 conjugated to ssDNA; also called fluorescein-ssFab′ 1.4.168; ssFab′ 1.004.168
As for B2, the Kd in test [2] is 2.14 nM and 2 nM; in the test with IGF-1R(1340-1366)amid [3], 1.1 nM and 1 nM; in test [6], 2.59 nM and 3 nM; in the test with IGF-1R(1340-1366)amid [7] it was 1.35 nM and 1 nM. In addition, the t1/2 diss with IGF-1R(1340-1366)amid [3] turned out to be 3 min; in test [6], 4 min; with IGF-1R(1340-1366)amid [7], 4 min. Further, the T1/2 dis in test [4] and in test [5] was 3 min in each case.

B3: T0 dual binding agent (ssFab′ 8.1.2 and ssFab′ 1.4.168 on the T0-Bi 37-mer linker) (bispecific antibody, V domains shown)
VH 1: B1 VH 1
VL 1: B1 VL 1
VH 2: B1 VH 2
VL 2: B1 VL 2
modifications: Fab′ hinge cysteine coupled to ssDNA
For B3, the Kd in test [8] was 0.03 nM; in test [6], 0.0344 nM; with IGF-1R(1340-1366)amid [7] it was 1.2 nM and 1 nM. Besides, the t1/2 diss in the test with IGF-1R(1340-1366)amid [7] turned out to be 5 min.
